In EP4796128A1, “ANTI-C-MET ANTIBODY-DRUG CONJUGATE COMPRISING CAMPTOTHECIN DERIVATIVE” (Celltrion, Inc., priority 2023, dated 2025):
Several values for one entry are separate records, joined by “and”; a condition that tells them apart may be missing. Equal entries are not always repeated.

Legend:
Type in all cases: in vivo, BALB/c nude mice
[1] = system: NCI-H441 human lung cancer xenograft; assay: NCI-H441 human lung cancer xenograft model; conditions: 3 mg/kg i.v. QW × 2 weeks
Description: NCI-H441 tumor cells (ATCC, Catalog No. HTB-174) were maintained in vitro in RPMI 1640 medium supplemented with 10% FBS and 1% antibiotic-antimycotic at 37°C and 5% CO2 in air. Tumor cells NCI-H441 were routinely passaged twice a week by treatment with trypsin-EDTA. The cells with exponential growth were harvested and counted for tumor inoculation.
Mice were randomly assigned to groups of 10 each, and tumor cells were inoculated into the mice according to the experimental conditions shown in Table 19 below. Specifically, NCI-H441 tumor cells (5 × 10^6 cells/mouse) were subcutaneously inoculated into the right flank of each mouse together with 0.2 mL of PBS containing Matrigel (1:1). Treatment was started on day 14 after inoculation, when the mean tumor volume reached 180 mm^3, and the treatment start date was set as day 0. This experiment was performed for 35 days.
(§1) Statistical analysis was performed on the data obtained 35 days after the start of the experiment to determine differences in tumor volume and tumor weight between groups. […] All data were analyzed using SPSS 29.0. p < 0.05 was considered statistically significant.

[2] = system: Hs746T human gastric cancer xenograft; assay: Hs746T human gastric cancer xenograft model; conditions: for TGI: Day 13; for T/C: Day 13, tumor volume vs P23 isotype mAb group
Description: Hs746T tumor cells (ATCC, Catalog No. HTB-135) were cultured as a monolayer in DMEM medium supplemented with 10% FBS and 1% antibiotic-antimycotic at 37°C in an atmosphere of 5% CO2 in air. Tumor cells (Hs746T) were routinely passaged three times a week by treating with trypsin-EDTA. The cells with exponential growth were harvested and counted for tumor inoculation.
Mice were randomly assigned to groups of six each, and tumor cells were inoculated into the mice according to the experimental conditions shown in Table 9 below. Specifically, Hs746T tumor cells (2 × 10^6 cells/mouse) were subcutaneously inoculated into the right flank of each mouse together with 0.1 mL of PBS containing Matrigel. The teatment was started on day 15 after inoculation, when the average tumor volume reached 197 mm^3, and the date when the treatment started was set as Day 0. This experiment was performed for 27 days.
The experimental endpoints were set when tumor growth stopped or the mice were cured. The size and volume of the tumor were measured twice a week in two and three dimensions using calipers, and these were used to calculate the T/C (tumor volume over control volume) and TGI (tumor growth inhibition) values.
In the T/C values (%) above, T and C represent the average volume of the experimental group and the control group on a specific day, respectively, and the T/C value is an index for the antitumor effect.
The TGI values were calculated using the following equation, where Ti is a mean tumor volume of the treatment group on a specific date, T0 is a mean tumor volume of the treatment group on the first day of treatment, Vi is a mean tumor volume of the vehicle control group on the same day as Ti, and V0 is a mean tumor volume of the vehicle group on the first day of treatment. TGI (%) = [1−(Ti−T0)/(Vi−V0)] × 100 [formula]
All data were analyzed using SPSS 29.0. p < 0.05 was considered statistically significant.

[3] = system: LU-01-0439 human lung cancer xenograft; assay: LU-01-0439 human lung cancer xenograft (PDX) model; conditions: 10 mg/kg i.v. QW × 2 weeks
Text: It was aimed to confirm the anticancer effect of the ADC of the present invention from the LU-01-0439 human lung cancer xenograft model of BALB/c nude mice (Zhejiang Vital River Laboratory Animal Technology Co., LTD.).
The lung cancer PDX model of LU-01-0439 was generated by transplanting surgically resected clinical samples into immunodeficient mice and was established as passage 0 (P0). Then, the cells were subcultured through serial transplantation, and the passage after P0 was defined as passage 1 (P1). The tumor recovered from the frozen P2 tumor tissue was designated as FP3, and finally, FP4 tumor tissue was prepared for the experiment.
Mice were randomly assigned to groups of eight each, and tumors were implanted into the mice according to the experimental conditions shown in Table 14 below. Specifically, LU-01-0439 FP4 tumor fragments (20-30 mm^3) were subcutaneously implanted into the right flank of each mouse. Treatment was started on day 24 after tumor transplantation, when the mean tumor volume reached 175 mm^3, and the treatment start date was set as Day 0. This experiment was performed for 35 days.
The tumor size was measured using the same method as in Experimental Example 3-1 above.
as §1

[4] = Day 35, tumor volume vs P23 isotype mAb group
[5] = Day 35, tumor weight vs P23 isotype mAb group

B1: P23-PBX-7016: isotype ADC: anti-influenza A antibody (Navivumab, P23) conjugated with mc-GGFG-PBX-7016; DAR 8 (conjugate, chains of the INN, looked up)
VH: QVQLVQSGAEVKKPGASVKVSCKTSGYSFSTYGVSWVRQAPGQGPEWVGWISAYTGITDYAQKFQGRVTLTTDATTATAFLDLRSLRPDDTATYFCARDKVQGRVEVGSGGRHDYWGQGTLVIVSS
VL: EVVLTQSPGTLALPPGERATLSCRASHRVGSTYIAWYQQKSGQAPRRLIYGASNRATDIPDRFSGSGSGTDFTLTIRRLEPEDSAVYYCQQFSVSPWTFGQGTRVEIK
modifications: mc-GGFG-PBX-7016 payload, DAR 8
Tumor Volume ([1]; Day 0, mean ± SEM): 180 ± 13 mm^3 | Tumor Volume ([1]; Day 4, mean ± SEM): 198 ± 16 mm^3 | Tumor Volume ([1]; Day 7, mean ± SEM): 171 ± 14 mm^3 | Tumor Volume ([1]; Day 11, mean ± SEM): 140 ± 14 mm^3 | Tumor Volume ([1]; Day 14, mean ± SEM): 131 ± 14 mm^3 | Tumor Volume ([1]; Day 18, mean ± SEM): 134 ± 15 mm^3 | Tumor Volume ([1]; Day 21, mean ± SEM): 138 ± 17 mm^3 | Tumor Volume ([1]; Day 25, mean ± SEM): 155 ± 20 mm^3 | Tumor Volume ([1]; Day 28, mean ± SEM): 190 ± 33 mm^3 | Tumor Volume ([1]; Day 32, mean ± SEM): 235 ± 42 mm^3 | TGI ([1]; Day 35): 91.34% | Tumor Weight on Day 35 ([1]; Day 35): 0.318 ± 0.059 g | Tumor Volume ([1]; Day 35, mean ± SEM): 303 ± 54 mm^3 | T/C [1, 4]: 19.00% | T/Cweight [1, 5]: 19.05% | Tumor Volume ([2]; 0.3 mg/kg i.v. single dose, Day 0, mean ± SEM): 197 ± 24 mm^3 | Tumor Volume ([2]; 0.3 mg/kg i.v. single dose, Day 3, mean ± SEM): 309 ± 37 mm^3 | Tumor Volume ([2]; 0.3 mg/kg i.v. single dose, Day 6, mean ± SEM): 512 ± 87 mm^3 | Tumor Volume ([2]; 0.3 mg/kg i.v. single dose, Day 10, mean ± SEM): 873 ± 170 mm^3 | TGI ([2]; 0.3 mg/kg i.v. single dose): 26.87% | T/C ([2]; 0.3 mg/kg i.v. single dose): 76.49% | Tumor Volume ([2]; 0.3 mg/kg i.v. single dose, Day 20, mean ± SEM): 2149 ± 475 mm^3 | Tumor Volume ([2]; 0.3 mg/kg i.v. single dose, Day 27, mean ± SEM): 2,175 ± 874 (n = 3) mm^3 | Tumor Volume ([2]; 1 mg/kg i.v. single dose, Day 0, mean ± SEM): 197 ± 24 mm^3 | Tumor Volume ([2]; 1 mg/kg i.v. single dose, Day 3, mean ± SEM): 298 ± 36 mm^3 | Tumor Volume ([2]; 1 mg/kg i.v. single dose, Day 6, mean ± SEM): 476 ± 80 mm^3 | Tumor Volume ([2]; 1 mg/kg i.v. single dose, Day 10, mean ± SEM): 807 ± 171 mm^3 | TGI ([2]; 1 mg/kg i.v. single dose): 27.98% | T/C ([2]; 1 mg/kg i.v. single dose): 75.52% | Tumor Volume ([2]; 1 mg/kg i.v. single dose, Day 20, mean ± SEM): 2,089 ± 416 mm^3 | Tumor Volume ([2]; 3 mg/kg i.v. single dose, Day 0, mean ± SEM): 197 ± 23 mm^3 | Tumor Volume ([2]; 3 mg/kg i.v. single dose, Day 3, mean ± SEM): 281 ± 55 mm^3 | Tumor Volume ([2]; 3 mg/kg i.v. single dose, Day 6, mean ± SEM): 318 ± 72 mm^3 | Tumor Volume ([2]; 3 mg/kg i.v. single dose, Day 10, mean ± SEM): 308 ± 80 mm^3 | TGI ([2]; 3 mg/kg i.v. single dose): 84.88% | Tumor Volume ([2]; 3 mg/kg i.v. single dose, Day 13, mean ± SEM): 405 mm^3 and 405 ± 125 mm^3 | T/C ([2]; 3 mg/kg i.v. single dose): 25.71% | Tumor Volume ([2]; 3 mg/kg i.v. single dose, Day 17, mean ± SEM): 669 ± 192 mm^3 | Tumor Volume ([2]; 3 mg/kg i.v. single dose, Day 20, mean ± SEM): 826 ± 223 mm^3 | Tumor Volume ([3]; Day 0, mean ± SEM): 175 ± 15 mm^3 | Tumor Volume ([3]; Day 3, mean ± SEM): 209 ± 22 mm^3 | Tumor Volume ([3]; Day 7, mean ± SEM): 238 ± 22 mm^3 | Tumor Volume ([3]; Day 10, mean ± SEM): 247 ± 19 mm^3 | Tumor Volume ([3]; Day 14, mean ± SEM): 217 ± 18 mm^3 | Tumor Volume ([3]; Day 17, mean ± SEM): 217 ± 28 mm^3 | Tumor Volume ([3]; Day 21, mean ± SEM): 205 ± 42 mm^3 | Tumor Volume ([3]; Day 24, mean ± SEM): 263 ± 61 mm^3 | Tumor Volume ([3]; Day 28, mean ± SEM): 393 ± 90 mm^3 | Tumor Volume ([3]; Day 31, mean ± SEM): 536 ± 117 mm^3 | TGI ([3]; Day 35): 64.62% | Tumor Weight on Day 35 ([3]; Day 35): 0.561 ± 0.117 g | Tumor Volume ([3]; Day 35, mean ± SEM): 630 ± 137 mm^3 | T/C [3, 4]: 43.11% | T/C [3, 5]: 42.93%
